According to PMC9400459 (Science (New York, N.y.), 2022):

Target: SARS-CoV-2 receptor binding domain (SARS-CoV-2, UniProt P0DTC2)
Test: cell-based or functional assay

B1: S2K146 human monoclonal antibody (antibody, V domains shown)
VH: QVQLVESGGVVVQPGGSLRLSCAASGFTFHDHTMHWVRQAPGKGLEWVSLITWNGGTIHYSDSVKGRFTISRDNSKNSLYLQMNSLRTEDTALYYCAKDLGRGGWYLPSDAWGQGTLVTVSS
VL: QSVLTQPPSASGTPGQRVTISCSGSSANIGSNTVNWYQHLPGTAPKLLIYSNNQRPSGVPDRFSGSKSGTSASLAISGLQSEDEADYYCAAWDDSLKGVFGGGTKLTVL
B1 was tested, and the “IC50 of neutralisation of authentic SARS-CoV-2 (isolate USA-WA1/2020, lineage A)” value was 10 ng/mL.
